From article doi:10.1101/354985

T1: POT1a;TPP1 (mouse;mouse?, UniProt Q91WC1;Q5EE38 1-640;1-416, |)
T1 sequence 1: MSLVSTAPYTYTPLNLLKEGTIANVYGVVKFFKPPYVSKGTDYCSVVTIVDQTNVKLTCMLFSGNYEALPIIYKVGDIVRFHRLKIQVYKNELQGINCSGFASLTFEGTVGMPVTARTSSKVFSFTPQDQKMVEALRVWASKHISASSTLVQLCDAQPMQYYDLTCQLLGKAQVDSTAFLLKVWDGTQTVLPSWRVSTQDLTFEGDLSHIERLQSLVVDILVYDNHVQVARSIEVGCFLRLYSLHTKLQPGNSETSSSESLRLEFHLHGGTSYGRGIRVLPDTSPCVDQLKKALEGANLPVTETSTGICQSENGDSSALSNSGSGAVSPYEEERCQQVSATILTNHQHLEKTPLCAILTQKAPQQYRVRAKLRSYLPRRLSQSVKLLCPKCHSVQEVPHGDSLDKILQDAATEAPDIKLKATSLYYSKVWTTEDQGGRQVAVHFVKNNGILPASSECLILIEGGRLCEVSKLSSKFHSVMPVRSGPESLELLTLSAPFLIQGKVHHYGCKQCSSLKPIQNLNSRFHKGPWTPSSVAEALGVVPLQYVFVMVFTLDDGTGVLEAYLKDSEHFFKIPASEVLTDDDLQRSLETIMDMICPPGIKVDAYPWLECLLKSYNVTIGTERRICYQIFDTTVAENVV
T1 sequence 2: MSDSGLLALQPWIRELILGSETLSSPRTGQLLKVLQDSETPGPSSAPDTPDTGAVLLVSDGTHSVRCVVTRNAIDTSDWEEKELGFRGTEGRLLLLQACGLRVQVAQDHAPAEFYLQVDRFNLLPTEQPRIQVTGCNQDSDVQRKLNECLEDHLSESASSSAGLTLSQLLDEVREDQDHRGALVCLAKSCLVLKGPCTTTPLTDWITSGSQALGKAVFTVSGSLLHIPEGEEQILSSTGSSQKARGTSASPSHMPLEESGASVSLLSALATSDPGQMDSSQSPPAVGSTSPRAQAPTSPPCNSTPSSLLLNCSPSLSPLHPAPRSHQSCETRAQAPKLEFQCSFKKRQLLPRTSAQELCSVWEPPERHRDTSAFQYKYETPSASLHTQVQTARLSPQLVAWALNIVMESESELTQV


How the values were obtained:
Assay in all cases: EMSA
Δ70-POT1aC;TPP1 [1] = biological target: T2, Δ70-POT1aC;TPP1 (mouse? (POT1a part); RPA70 organism not …, UniProt Q8VEE4;Q5EE38 191-623+Q91WC1:149-640;1-416, internal_change|)
POT1a;TPP1 [2] = biological target: T1, POT1a;TPP1
Δ70-POT1aC;TPP1 [3] = biological target: T2, Δ70-POT1aC;TPP1; remark: listed apart in the source
POT1a;TPP1 [4] = biological target: T1, POT1a;TPP1; remark: listed apart in the source

Binder | binding result (Δ70-POT1aC;TPP1 [1]) | binding result (POT1a;TPP1 [2]) | Kd (Δ70-POT1aC;TPP1 [3]) [nM] | Kd (POT1a;TPP1 [4]) [nM]
ATGCGACTCGAGCTAGATGATGTCTTCTGCAATCA (ssDNA) [Scr35] | binds | no binding |  | 
TTAGGGTTAGGGTTAGGGTTAGGGTTAGGGTTAG (ssDNA) [Telo34] |  |  | ~0.5 | ~0.5
